From patent US20050260197A1 (IMMUNEX, published 2005)
One block for each binder: values may come before it.

What was measured:
[1] = target: T1, recombinant human leukemia inhibitory factor (125I-labeled) (human, UniProt P15018 23-202, radioiodinated (125I)); experiment: 125I-LIF binding to Fc fusion captured on Protein A beads
T1 construct: also called LIF; 125I-LIF
Experimental: (§1) The transfected cells were cultured to allow expression and secretion of the fusion proteins into the culture medium. Cross-linked agarose beads bearing Protein A (Protein A Sepharose CL-4B, Pharmacia Biotech, Inc., Piscataway, N.J.) were added to the culture supernatants, whereupon the fusion proteins bound to the beads via the interaction of the Fc moiety with the Protein A. Radioiodinated oncostatin M or radioiodinated LIF was also added to the culture supernatants. Preparation of ¹²⁵I-oncostatin M is described in example 2 above. Among the known procedures for purifying and radioiodinating LIF are those described in example 1 of U.S. Pat. No. 5,284,755. The ¹²⁵I-LIF employed in this assay was recombinant human LIF labeled with 125I using the enzymobead reagent (BioRad).
(§2) The culture supernatants were incubated with the Protein A beads and ¹²⁵I-LIF or ¹²⁵I-oncostatin M for 18 hours at 4° C. Free and cell-bound ¹²⁵I-LIF or ¹²⁵i-oncostatin M were separated by low speed centrifugation through a single step density gradient of 3% glucose in PBS. The bead-bound radioiodinated proteins were quantified on a Packard Autogamma counter.

[2] = target: T1, recombinant human leukemia inhibitory …; experiment: 125I-LIF binding to Fc fusions captured on Protein A beads
Experimental: as §1, §2

[3] = target: T2, oncostatin M (125I-labeled) (UniProt P13725 26-221, limits assumed, radioiodinated (125I)); experiment: 125I-oncostatin M binding to Fc fusion captured on Protein A beads
T2 construct: also called OSM; 125I-OSM
T2 sequence (looked up): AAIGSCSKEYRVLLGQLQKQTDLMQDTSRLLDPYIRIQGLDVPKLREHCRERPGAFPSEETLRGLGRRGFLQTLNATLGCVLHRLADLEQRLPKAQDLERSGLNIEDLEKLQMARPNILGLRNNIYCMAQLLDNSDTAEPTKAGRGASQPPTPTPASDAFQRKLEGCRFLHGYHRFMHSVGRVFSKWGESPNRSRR
Experimental: as §1, §2

T1 sequence (P15018 23-202 limits assumed): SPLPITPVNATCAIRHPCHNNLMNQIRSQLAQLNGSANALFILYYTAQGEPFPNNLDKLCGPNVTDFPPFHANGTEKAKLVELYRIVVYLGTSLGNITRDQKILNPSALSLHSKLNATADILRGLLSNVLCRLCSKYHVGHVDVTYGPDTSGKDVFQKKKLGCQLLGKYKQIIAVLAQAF

binding result [1]: no binding
B1: soluble human gp130/Fc fusion protein (Fc fusion)
chain: ELLDPCGYISPESPVVQLHSNFTAVCVLKEKCMDYFHVNANYIVWKTNHFTIPKEQYTIINRTASSVTFTDIASLNIQLTCNILTFGQLEQNVYGITIISGLPPEKPKNLSCIVNEGKKMRCEWDGGRETHLETNFTLKSEWATHKFADCKAKRDTPTSCTVDYSTVYFVNIEVWVEAENALGKVTSDHINFDPVYKVKPNPPHNLSVINSEELSSILKLTWTNPSIKSVIILKYNIQYRTKDASTWSQIPPEDTASTRSSFTVQDLKPFTEYVFRIRCMKEDGKGYWSDWSEEASGITYEDRPSKAPSFWYKIDPSHTQGYRTVQLVWKTLPPFEANGKILDYEVTLTRWKSHLQNYTVNATKLTVNLTNDRYLATLTVRNLVGKSDAAVLTIPACDFQATHPVMDLKAFPKDNMLWVEWTTPRESVKKYILEWCVLSDKAPCITDWQQEDGTVHRTYLRGNLAESKCYLITVTPVYADGPGSPESIKAYLKQAPPSKGPTVRTKKVGKNEAVLEWDQLPVDVQNGFIRNYTIFYRTIIGNETAVNVDSSHTEYTLSSLTSDTLYMVRMAAYTDEGGKDGPEPRSCDKTHTCPPCPAPELLGGPSVFLFPPKPKDTLMISRTPEVTCVVVDVSHEDPEVKFNWYVDGVEVHNAKTKPREEQYNSTYRVVSVLTVLHQDWLNGKDYKCKVSNKALPAPMQKTISKAKGQPREPQVYTLPPSRDELTKNQVSLTCLVKGFYPRHIAVEWESNGQPENNYKTTPPVLDSDGSFFLYSKLTVDKSRWQQGNVFSCSVMHEALHNHYTQKSLSLSPGK
notes: Tested from culture supernatant, captured on Protein A beads; also called soluble gp130/Fc; experiment B; not shown: 7 amino acid peptide linker encoded by the polylinker of plasmid hIgG1Fc

binding result [2]: no binding
B2: proteins expressed by cells co-transfected with vectors encoding soluble OSM-Rβ/Fc and soluble gp130/Fc (Fc fusion)
chain 1: ERLPLTPVSLKVSTNSTRQSLHLQWTVHNLPYHQELKMVFQIQISRIETSNVIWVGNYSTTVKWNQVLHWSWESELPLECATHFVRIKSLVDDAKFPEPNFWSNWSSWEEVSVQDSTGQDILFVFPKDKLVEEGTNVTICYVSRNIQNNVSCYLEGKQIHGEQLDPHVTAFNLNSVPFIRNKGTNIYCEASQGNVSEGMKGIVLFVSKVLEEPKDFSCETEDFKTLHCTWDPGTDTALGWSKQPSQSYTLFESFSGEKKLCTHKNWCNWQITQDSQETYNFTLIAENYLRKRSVNILFNLTHRVYLMNPFSVNFENVNATNAIMTWKVHSIRNNFTYLCQIELHGEGKMMQYNVSIKVNGEYFLSELEPATEYMARVRCADASHFWKWSEWSGQNFTTLEAAPSEAPDVWRIVSLEPGNHTVTLFWKPLSKLVEPRSCDKTHTCPPCPAPELLGGPSVFLFPPKPKDTLMISRTPEVTCVVVDVSHEDPEVKFNWYVDGVEVHNAKTKPREEQYNSTYRVVSVLTVLHQDWLNGKDYKCKVSNKALPAPMQKTISKAKGQPREPQVYTLPPSRDELTKNQVSLTCLVKGFYPRHIAVEWESNGQPENNYKTTPPVLDSDGSFFLYSKLTVDKSRWQQGNVFSCSVMHEALHNHYTQKSLSLSPGK
chain 2: B1 chain
notes: also called OSM-Rβ/Fc and gp130/Fc; experiment F; not shown: 7 amino acid peptide linker encoded by the polylinker of plasmid hIgG1Fc

binding result [3]: no binding
binding result [1]: no binding
B3: soluble OSM-Rβ/Fc fusion protein (Fc fusion)
chain: B2 chain 1
notes: Truncated extracellular domain of OSM-Rβ; Tested from culture supernatant, captured on Protein A beads; also called experiment D
